Assay [1] has as its target T1, recombinant protein of the hTROP-2 extracellular region (human, UniProt P09758 27-263).
T1 construct: produced with baculovirus, purified on Ni Sepharose; also called hTROP-2 EC; hTROP-2-EC-His; not shown: C-terminal myc-His tag from pcDNA4/myc-His A
T1 sequence: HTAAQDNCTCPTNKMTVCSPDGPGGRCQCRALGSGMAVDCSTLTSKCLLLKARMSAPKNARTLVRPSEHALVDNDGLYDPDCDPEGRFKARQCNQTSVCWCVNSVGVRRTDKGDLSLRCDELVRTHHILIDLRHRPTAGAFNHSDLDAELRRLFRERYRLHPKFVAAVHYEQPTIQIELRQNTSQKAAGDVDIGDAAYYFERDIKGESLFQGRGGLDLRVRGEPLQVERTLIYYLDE
Description: monovalent ELISA: antibody captured by anti-mouse IgG, hTROP-2 EC titrated in solution, detected with anti-His. How it is done: Thereafter, coating was carried out at 4° C. overnight. Thereafter, the reaction product was washed with a washing buffer (PBS containing 0.05% Tween 20), and a blocking buffer (PBS containing 2% skim milk and 0.05% Tween 20) was then added thereto (200 μL/well) to block it (at room temperature for 1 hour). The resultant was washed with a washing buffer. […] The mixture was left at rest at room temperature for 1 hour, and the reaction product was then washed with a washing buffer. The recombinant protein of the hTROP-2 extracellular region described in Example 3 (hTROP-2 EC) was diluted with an ELISA buffer to prepare samples with a concentration range from 5 μg/mL to a series of three-fold dilutions (10 samples). The thus obtained sample was added in each amount of 50 μL/well to the plate. The mixture was left at rest at room temperature for 1 hour, and the reaction product was then washed with a washing buffer. […] The obtained mixture was left at rest at room temperature for 1 hour, and it was then washed with a washing buffer. […] The obtained mixture was left at rest at room temperature for 1 hour, and it was then washed with a washing buffer. […] Using Microplate reader Model 550 (BioRad), an absorbance at 450 nm was measured with an absorbance at 655 nm used as a reference.

Assay [2] deals with T2, recombinant hTACSTD2-Fc-His protein (Creative BioMart) (human, UniProt P09758 27-274, limits assumed).
T2 construct: bought protein; also called hTROP-2 (low-density antigen-coated ELISA); not shown: Fc part of the bought fusion protein; not described; His tag
T2 sequence: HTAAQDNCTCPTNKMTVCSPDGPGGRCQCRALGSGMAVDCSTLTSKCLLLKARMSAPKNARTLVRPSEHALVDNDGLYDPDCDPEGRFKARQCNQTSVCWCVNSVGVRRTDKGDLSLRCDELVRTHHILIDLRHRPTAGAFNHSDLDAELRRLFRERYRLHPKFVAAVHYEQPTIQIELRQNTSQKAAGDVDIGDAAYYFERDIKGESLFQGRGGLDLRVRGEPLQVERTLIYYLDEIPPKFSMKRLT
Description: low-density antigen-coated ELISA, plate coated with 0.1 µg/mL hTACSTD2-Fc-His, purified antibodies; K5-70 (parental antibody); low-density ELISA, 0.1 µg/mL hTROP-2 coat.

Among the data in patent US20160333110A1 (CHIOME BIOSCIENCE, published 2016) are EC50 values, retold here.

B1: anti-hTROP-2 monoclonal antibody clone K5-70 (antibody, mouse IgG2a, V domains shown)
VH: QVQLQQPGAELVRPGASVKLSCKASGYTFTIYWINWVKQRPGQGLEWIGNIYPSDSYTNYNQKFKDKATLTVDKSSSTAYMQLSSPTSEDSAVYYCTRTSMADYWGQGTTLTVSS
VL: DILLTQSPAILSVSPGERVSFSCRASQSIGTSIHWYQQRTNGSPRLLIKYASESISGIPSRFSGSGSGTDFTLSINSVESEDIADYYCQQSNSWPFTFGSGTKLEIK
notes: mouse IgG2a, hybridoma FERM BP-11251; also called K5-70 antibody; mouse K5-70 antibody
Regarding B1, the EC50 in assay [1] worked out at 7 ng/mL; in assay [2], 11.4 ng/mL.
